Source: patent publication US20220195067A1 (LAMKAP BIO BETA, published 2022)

Columns and labels:
[1] = molecular target: T1, human CEACAM5 on CEACAM5-expressing cancer cell lines (human, UniProt P06731 35-685); test: flow cytometry on Ls174T cells (carry CEACAM5 and CD47), PE anti-human IgG Fc
T1 construct: whole, on cells; also called CEACAM5 on SK-CO-1, MKN-45, HPAF-II, SNU-C1, Ls174T, LoVo cells
T1 sequence (looked up): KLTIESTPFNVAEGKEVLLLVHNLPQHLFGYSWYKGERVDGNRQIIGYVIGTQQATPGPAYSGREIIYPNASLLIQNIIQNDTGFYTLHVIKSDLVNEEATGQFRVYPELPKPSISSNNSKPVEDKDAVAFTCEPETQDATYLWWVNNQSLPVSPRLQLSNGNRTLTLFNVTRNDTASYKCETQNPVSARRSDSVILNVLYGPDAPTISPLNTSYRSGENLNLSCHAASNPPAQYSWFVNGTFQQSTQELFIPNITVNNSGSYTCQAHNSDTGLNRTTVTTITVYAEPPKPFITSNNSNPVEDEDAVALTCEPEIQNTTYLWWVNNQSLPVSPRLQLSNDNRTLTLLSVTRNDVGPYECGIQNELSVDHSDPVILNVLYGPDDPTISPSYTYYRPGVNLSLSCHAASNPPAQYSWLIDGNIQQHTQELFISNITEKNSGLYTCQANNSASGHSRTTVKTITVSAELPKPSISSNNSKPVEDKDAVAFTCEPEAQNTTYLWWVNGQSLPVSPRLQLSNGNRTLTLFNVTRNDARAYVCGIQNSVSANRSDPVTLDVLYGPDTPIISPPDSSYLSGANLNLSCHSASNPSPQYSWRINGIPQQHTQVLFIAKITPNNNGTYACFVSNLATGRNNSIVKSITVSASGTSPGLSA
Method: (§1) The binding of CD47×CEACAM5 bispecific antibodies was tested on CEACAM5-expressing human gastric adenocarcinoma cells (e.g. MKN-45), on CEACAM5-expressing human colorectal cancer cells (SK-CO-1, SNU-C1, Ls174T, and LoVo), and on CEACAM5-expressing pancreatic adenocarcinoma cells (HPAF-II).
(§2) Cells were harvested, counted, checked for viability and resuspended at 3×10⁶ cells/ml in FACS buffer (PBS 2% BSA, 0.1% NaN3). 100 μl of the cell suspension was distributed in V-bottom 96-well plates (3×10⁵ cells/well). The supernatant was removed by centrifugation 3 minutes at 4° C., 1300 rpm. Increasing concentrations of the antibody according to the invention were then added into the wells and incubated for 15 minutes at 4° C. Cells were washed twice with cold FACS buffer and re-incubated for further 15 minutes at 4° C. with the PE (R-phycoerythrin)-conjugated mouse anti-human IgG Fc secondary antibody (SouthernBiotech, pre-diluted 1:100 in FACS buffer). Cells were washed twice with cold FACS buffer and resuspended in 300 μl FACS buffer with 1:15000-diluted SytoxBlue (Life Technologies). Fluorescence, specifically mean fluorescence […] (MFI), was determined using a Cytoflex […] flow cytometer. Binding curves and […] and Emax values were obtained and calculated using GraphPad Prism7 software.

[2] = molecular target: T1, human CEACAM5 on CEACAM5-expressing …; test: flow cytometry on LoVo cells (carry CEACAM5 and CD47), PE anti-human IgG Fc
Method: as §1, §2

[3] = molecular target: T1, human CEACAM5 on CEACAM5-expressing …; test: flow cytometry on MKN-45 cells (carry CEACAM5 and CD47), PE anti-human IgG Fc
Method: as §1, §2

[4] = molecular target: T1, human CEACAM5 on CEACAM5-expressing …; test: flow cytometry on HPAF-II cells (carry CEACAM5 and CD47), PE anti-human IgG Fc
Method: as §1, §2

[5] = molecular target: T1, human CEACAM5 on CEACAM5-expressing …; test: flow cytometry on SK-CO-1 cells (carry CEACAM5 and CD47), PE anti-human IgG Fc
Method: as §1, §2

[6] = molecular target: T1, human CEACAM5 on CEACAM5-expressing …; test: flow cytometry on SNU-C1 cells (carry CEACAM5 and CD47), PE anti-human IgG Fc
Method: as §1, §2

[7] = molecular target: T2, human CD47 expressed at the surface of MKN-45 cells (human, UniProt Q08722 19-323); test: CD47/SIRPα blocking assay on MKN-45 cells (carry CD47 and CEACAM5), imaging of bound SIRPα-mouseFc
T2 construct: whole, on cells; MKN-45 cells express both CD47 and CEACAM5; also called hCD47
Source text: The cell-based assay monitoring the interaction of soluble SIRPa with human CD47 expressed at the surface of MKN-45 cells as described below was used for the detection of the blocking activity. Concentration-response experiments with bispecific antibodies according to the invention allowed determination of inhibition curves (see FIG. 4) and of IC50 values (see Table 12).
MKN-45 cancer cells, expressing both CD47 and CEACAM5, were stained with CFSE violet to allow the imaging system (CX5) to detect the cells. Briefly, 3'000 stained MKN-45 cells per well were seeded in a 384 optical well plate (Costar) and incubated for 50 minutes with increased concentrations of bispecific antibodies of the invention ([…] to 333 nM, in quadruplicates). Then, a fixed concentration of SIRPα-mouseFc premixed with anti-mouse IgG-Fc AF647 coupled antibody (Jackson Immunoresearch diluted 1:2000) was added at 50 ng/mL final. After an incubation of 3 hours and 30 minutes, images of the fluorescence signals emitted by the detected bound SIRPa on the plates were acquired with the imaging system (CX5, Thermo Fisher). Fluorescence signals (mean fluorescence intensity MFI) were plotted according to the dose range tested, and IC50 was calculated by the software (Prism, GraphPad).

T2 sequence (Q08722 19-323): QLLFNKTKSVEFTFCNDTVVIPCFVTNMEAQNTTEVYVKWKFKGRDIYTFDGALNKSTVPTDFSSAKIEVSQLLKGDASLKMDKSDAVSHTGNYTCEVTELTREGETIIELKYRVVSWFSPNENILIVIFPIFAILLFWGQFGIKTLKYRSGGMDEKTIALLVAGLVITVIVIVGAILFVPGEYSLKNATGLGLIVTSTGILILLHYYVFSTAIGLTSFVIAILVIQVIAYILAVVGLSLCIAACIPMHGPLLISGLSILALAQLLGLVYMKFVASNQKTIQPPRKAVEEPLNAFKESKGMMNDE

B1: K2AC82 (bispecific antibody, human IgG1, kappa, lambda)
heavy: not shown
light 1: QSVLTQPPSVSAAPGQKVTISCSGSSSNIGYGLVSWYQQLPGTAPKLLIYGINKRPSGIPDRFSGSKSGTSATLGITGLQTGDEADYYCGTWDFSYRVDFGGGTKLTVLGQPKAAPSVTLFPPSSEELQANKATLVCLISDFYPGAVTVAWKADSSPVKAGVETTTPSKQSNNKYAASSYLSLTPEQWKSHRSYSCQVTHEGSTVEKTVAPTECS
light 2: not shown
notes: Kappa-lambda body; also called CD47xCEACAM5 bispecific antibody K2AC82; AC82 (CEACAM5 arm)
With B1 the EC50 [1] was 11.3 nM, the “Emax (MFI)” value [1] was 77000 MFI and the EC50 [2] was 22 nM. For the same binder, the “Emax (MFI)” value [2] was 260000 MFI, the EC50 [3] was 10 nM and the “Emax (MFI)” value [3] was 1.18e+06 MFI. The EC50 [4] was 11.3 nM, the “Emax (MFI)” value [4] was 940000 MFI and the EC50 [5] was 17.3 nM. For the same binder, the “Emax (MFI)” value [5] was 900000 MFI, the EC50 [6] was 4.4 nM and the “Emax (MFI)” value [6] was 280000 MFI. The IC50 [7] was 0.07 nM.

B2: K2AC117 (bispecific antibody, human IgG1, kappa, lambda)
heavy: not shown
light 1: QSVLTQPPSVSAAPGQKVTISCSGSSSNIGIGLVSWYQQLPGTAPKLLIYNGNVRPSGIPDRFSGSKSGTSATLGITGLQTGDEADYYCGTWDFSYRVDFGGGTKLTVLGQPKAAPSVTLFPPSSEELQANKATLVCLISDFYPGAVTVAWKADSSPVKAGVETTTPSKQSNNKYAASSYLSLTPEQWKSHRSYSCQVTHEGSTVEKTVAPTECS
light 2: not shown
notes: Kappa-lambda body; also called CD47xCEACAM5 bispecific antibody K2AC117; AC117 (CEACAM5 arm)
For B2, the EC50 [1] was 6.7 nM, the “Emax (MFI)” value [1] was 70000 MFI and the EC50 [2] was 20 nM. The “Emax (MFI)” value [2] was 320000 MFI, the EC50 [3] was 8 nM and the “Emax (MFI)” value [3] was 1.35e+06 MFI. For the same binder, the EC50 [4] was 7.3 nM, the “Emax (MFI)” value [4] was 1.2e+06 MFI and the EC50 [5] was 14.7 nM. For the same binder, the “Emax (MFI)” value [5] was 1.1e+06 MFI, the EC50 [6] was 3.13 nM and the “Emax (MFI)” value [6] was 370000 MFI. For the same binder, the IC50 [7] was 0.08 nM.

B3: K2AC91 (bispecific antibody, human IgG1, kappa, lambda)
heavy: not shown
light 1: QSVLTQPPSVSAAPGQKVTISCSGSSSNIGIGLVSWYQQLPGTAPKLLIYTVNNRPSGIPDRFSGSKSGTSATLGITGLQTGDEADYYCGTFDFSYGIVFGGGTKLTVLGQPKAAPSVTLFPPSSEELQANKATLVCLISDFYPGAVTVAWKADSSPVKAGVETTTPSKQSNNKYAASSYLSLTPEQWKSHRSYSCQVTHEGSTVEKTVAPTECS
light 2: not shown
notes: Kappa-lambda body; also called CD47xCEACAM5 bispecific antibody K2AC91; AC91 (CEACAM5 arm)
B3 was tested, and the EC50 [1] was 6 nM, the “Emax (MFI)” value [1] was 100000 MFI and the EC50 [2] was 16 nM. The “Emax (MFI)” value [2] was 380000 MFI, the EC50 [3] was 8 nM and the “Emax (MFI)” value [3] was 1.64e+06 MFI. For the same binder, the EC50 [5] was 12.7 nM, the “Emax (MFI)” value [5] was 1.3e+06 MFI and the EC50 [6] was 2.53 nM. The “Emax (MFI)” value [6] was 400000 MFI and the IC50 [7] was 0.05 nM.
